Experimental data from patent publication US20210206882A1 (AB STUDIO, published 2021).
Values belong to the binder of their own block, whether it stands above or below them.

Assays:
[1] = molecular target: T1, CD20 (on CD20 positive Raji cells) (UniProt P11836 1-297, limits assumed); test: flow cytometry cell binding on CD20+ Raji cells, 3-fold titration 10 to 0.04 µg/ml and 0
T1 construct: whole, on cells; Raji is a human B cell line
T1 sequence (looked up): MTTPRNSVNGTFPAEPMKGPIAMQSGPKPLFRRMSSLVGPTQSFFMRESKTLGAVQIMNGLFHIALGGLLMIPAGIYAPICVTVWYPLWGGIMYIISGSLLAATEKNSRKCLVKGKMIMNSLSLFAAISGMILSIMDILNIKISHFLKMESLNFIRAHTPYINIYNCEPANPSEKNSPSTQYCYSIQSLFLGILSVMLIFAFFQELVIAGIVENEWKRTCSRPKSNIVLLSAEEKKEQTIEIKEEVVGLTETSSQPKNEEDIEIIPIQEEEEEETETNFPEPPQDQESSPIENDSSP

CD55 = molecular target: T2, CD55 (UniProt P08174 35-353, limits assumed); test: flow cytometry cell binding on MDA231 cells (Cy3 goat anti-human IgG); antibody concentration not given
T2 construct: In the internalization assay CD55 stood on MDA231 and SIHA cells
T2 sequence (looked up): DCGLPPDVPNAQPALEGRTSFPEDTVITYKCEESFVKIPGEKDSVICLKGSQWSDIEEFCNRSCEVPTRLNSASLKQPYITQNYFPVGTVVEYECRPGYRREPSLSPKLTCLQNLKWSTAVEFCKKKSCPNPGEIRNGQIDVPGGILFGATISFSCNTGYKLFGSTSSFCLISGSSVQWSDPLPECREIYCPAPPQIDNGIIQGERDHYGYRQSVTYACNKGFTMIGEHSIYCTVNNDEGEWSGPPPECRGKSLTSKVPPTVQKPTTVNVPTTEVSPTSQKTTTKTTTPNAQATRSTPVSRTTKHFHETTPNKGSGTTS

PD-L1 = PD-L1 (UniProt Q9NZQ7 19-290, limits assumed); test: as above
Sequence of PD-L1 (Q9NZQ7 19-290 limits assumed): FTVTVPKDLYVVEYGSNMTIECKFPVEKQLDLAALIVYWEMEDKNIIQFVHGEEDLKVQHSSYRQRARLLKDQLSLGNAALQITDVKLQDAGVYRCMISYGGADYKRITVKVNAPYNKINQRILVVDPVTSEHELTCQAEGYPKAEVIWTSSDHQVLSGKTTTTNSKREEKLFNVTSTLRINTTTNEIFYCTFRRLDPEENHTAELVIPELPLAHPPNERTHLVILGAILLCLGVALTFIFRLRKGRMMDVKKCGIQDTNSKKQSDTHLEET

- binding result [1]: no binding (tested: 10 µg/ml)
B3: CD3 homodimer IgG containing the designed VH sequence (SEQ ID NO: 2) and the common VL sequence (SEQ ID NO: 3) (antibody, V domains shown)
VH: EVQLQESGAELARPGASVKMSCKASGYTFTSYTMHWVKQRPGEGLEWIGYINPSSGYTKYNQKFKDKATLTADKSSSTAYMELSSLTSEDSAVYYCARWQDYDVYFDYWGEGTTLTVSS
VL: QIVLSQSPAILSASPGEKVTMTCRASSSVSYIHWFQQKPGSSPKPWIYATSNLASGVPVRFSGSGSGTSYSLTISRVEAEDAATYYCQQWTSNPPTFGGGTKLEIKR
notes: Homodimer IgG with two VHb and two common VL; also called redesigned 12F6; antibody B

- binding result (PD-L1): binds
B6: Anti-PD-L1 homodimer IgG (PD-L1 v1) containing the designed VH sequence (SEQ ID NO: 4) and the common VL sequence (SEQ ID NO: 6) (antibody, V domains shown)
VH: EVQLLESGGGLVEPGGSLRLSCAASGFTFSSYIMMWVRQAPGKGLEWVSSIYPSGGITFYADTVKGRFTISRDNSKNTLYLQMNSLRAEDTAVYYCARIKLGTVTTVDYWGEGTLVTVSS
VL: QSALTQPASVSGSPGQSITISCTGTSSDVGGYNYVSWYQQHPGKAPKLMIYDVSKRPSGVSNRFSGSKSGNTASLTISGLQAEDEADYYCSSYTSASTRIFGGGTKVTVLR
notes: Homodimer IgG; The heavy chain constant region of the homodimer is not specified; also called PD-L1 mono-dimer IgG; PDL1 homodimer version 1

- binding result (CD55): binds
B7: Anti-CD55 homodimer IgG (CD55 v1) containing the designed VH sequence (SEQ ID NO: 5) and the common VL sequence (SEQ ID NO: 6) (antibody, V domains shown)
VH: QVKLQESGGGLVKPGGSLKLSCAASGFTFSGYGMSWIRQTPGKRLEWVATINSGGSYTYYSDSVKGRFTISRDNVKNTLYLQMSSLKSEDTAMYYCARRNGTLYYYLMDYWGRGTLVTVSS
VL: QSALTQPASVSGSPGQSITISCTGTSSDVGGYNYVSWYQQHPGKAPKLMIYDVSKRPSGVSNRFSGSKSGNTASLTISGLQAEDEADYYCSSYTSASTRIFGGGTKVTVLR
notes: Homodimer IgG; also called CD55 mono-dimer IgG; CD55 homodimer version 1

Further lines, the binder ahead of its results:

B1: parental anti-CD20 IgG (Rituximab) (antibody, V domains shown)
VH: QVQLQQPGAELVKPGASVKMSCKASGYTFTSYNMHWVKQTPGRGLEWIGAIYPGNGDTSYNQKFKGKATLTADKSSSTAYMQLSSLTSEDSAVYYCARSTYYGGDWYFNVWGAGTTVTVSA
VL: QIVLSQSPAILSASPGEKVTMTCRASSSVSYIHWFQQKPGSSPKPWIYATSNLASGVPVRFSGSGSGTSYSLTISRVEAEDAATYYCQQWTSNPPTFGGGTKLEIKR
notes: tested as IgG; also called Parental CD20; CD20 parental Ab
- EC50 (read off the curve) [1]: ~0.2 µg/mL

B2: parental anti-CD3 IgG (MAb 12F6) (antibody, V domains shown)
VH: QVQLQQSGAELARPGASVKMSCKASGYTFTSYTMHWVKQRPGQGLEWIGYINPSSGYTKYNQKFKDKATLTADKSSSTAYMQLSSLTSEDSAVYYCARWQDYDVYFDYWGQGTTLTVSS
VL: QIVLSQSPAILSASPGEKVTMTCRASSSVSYMHWYQQKPGSSPKPWIYATSNLASGVPARFSGSGSGTSYSLTISRVEAEDAATYYCQQWSSNPPTFGGGTKLETKR
notes: tested as IgG; also called Parental CD3; CD3 parental Ab
- binding result [1]: no binding (tested: 10 µg/ml)

B4: CD20 homodimer IgG containing the designed VH sequence (SEQ ID NO: 1) and the common VL sequence (SEQ ID NO: 3) (antibody, V domains shown)
VH: QVQLQQPGAELVKPGASVKMSCKASGYTFTSYNMHWVKQTPGRGLEWIGAIYPGNGDTSYNQKFKGKATLTADKSSSTAYMQLSSLRSEDSAVYYCARSTYYGGDWYFNVWGAGTTVTVSA
VL: QIVLSQSPAILSASPGEKVTMTCRASSSVSYIHWFQQKPGSSPKPWIYATSNLASGVPVRFSGSGSGTSYSLTISRVEAEDAATYYCQQWTSNPPTFGGGTKLEIKR
notes: Homodimer IgG with two VHa and two common VL; VHa is the Rituximab VH with T83R (Kabat); also called redesigned Rituximab; antibody A
- EC50 (read off the curve) [1]: ~0.4 µg/mL

B5: parental anti-CD55 antibody (CD55 wt) (antibody, V domains shown)
VH: QVKLQESGGGLVQPGGSLKLSCAASGFTFSGYGMSWIRQTPDKRLEWVATINSGGSYTYYSDSVKGRFTISRDNVKNTLYLQMSSLKSEDTAMYYCARRNGTLYYYLMDYWGRGTLVTVSS
VL: QSVLTQPPSASGSPGQSVTISCTGTSSDVGGYNYVSWYQQHPGKAPKFMIYDVSKRPSGVSNRFSGSKSGNTASLTISGVQAEDEADYYCSSYTSASTVIFGGGTKLTVL
notes: The variable domains come from a published CD55 scFv; also called CD55 parental Ab; anti-CD55 parental monoclonal antibody
- binding result (CD55): binds
